The values that follow come from patent publication US20260184804A1 (KEY2BRAIN, published 2026).

Assay [1] deals with T1, His-tagged ectodomain of human transferrin receptor 1 (hTfR1), amino acids R121-F760 (human, UniProt P02786 121-760).
T1 construct: Made in CHO cells, purified by IMAC; also called human TfR1; ectodomain of hTfR1
The assay can be described thus: SPR; hTfR1 pre-complexed with immobilised hTf. In general terms: Surface plasmon resonance follows binding to a sensor surface in real time, without labels.

For assay [2], the target named is T2, His-tagged ectodomain of mouse transferrin receptor 1 (mTfR1), amino acids S122-F763 (mouse, UniProt Q62351 122-763).
T2 construct: Made in CHO cells; also called mouse TfR1
T2 sequence (Q62351 other isoform, or with tags, fused parts or gaps limits assumed): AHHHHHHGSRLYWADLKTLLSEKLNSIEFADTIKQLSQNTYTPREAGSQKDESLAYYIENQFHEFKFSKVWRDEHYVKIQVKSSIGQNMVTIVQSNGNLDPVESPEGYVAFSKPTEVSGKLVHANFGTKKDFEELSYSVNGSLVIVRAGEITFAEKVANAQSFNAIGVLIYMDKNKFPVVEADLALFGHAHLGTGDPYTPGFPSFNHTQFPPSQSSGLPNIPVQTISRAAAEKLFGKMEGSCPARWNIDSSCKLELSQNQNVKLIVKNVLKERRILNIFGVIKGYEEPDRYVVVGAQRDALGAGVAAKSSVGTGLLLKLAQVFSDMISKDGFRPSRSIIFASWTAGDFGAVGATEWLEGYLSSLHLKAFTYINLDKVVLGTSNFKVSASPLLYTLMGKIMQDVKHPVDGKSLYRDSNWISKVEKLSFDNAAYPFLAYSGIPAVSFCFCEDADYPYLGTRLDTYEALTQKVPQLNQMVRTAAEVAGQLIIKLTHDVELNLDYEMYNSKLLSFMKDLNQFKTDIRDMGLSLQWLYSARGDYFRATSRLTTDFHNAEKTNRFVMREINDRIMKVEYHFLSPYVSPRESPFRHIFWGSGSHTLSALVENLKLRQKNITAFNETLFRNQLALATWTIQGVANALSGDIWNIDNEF
The assay can be described thus: SPR (Biacore T200); mTfR1 amine-coupled on CM5, KB_A01 as analyte. As for the experimental part:
The contact time was 150 s for each concentration at […] with a final dissociation step of 500 s. […] At the end of each single cycle run, the mTfR1 surface was fully regenerated by an injection of 10 mM NaOH for 30 s. After each single cycle kinetic run, blank run was performed and used for baseline correction. The data with respect to the association rate constant (ka), the dissociation rate constant (kd) and the equilibrium dissociation constant (KD) was evaluated using Biacore T200 software evaluation tool applying a Langmuir 1:1 model.

The target of assay [3] is T1, His-tagged ectodomain of human …. As to the kind of experiment: SPR (Biacore T200, single-cycle); hTfR1 captured on amine-coupled hTf, binder as analyte 6.25-100 nM.

T1 sequence (P02786 other isoform, or with tags, fused parts or gaps limits assumed): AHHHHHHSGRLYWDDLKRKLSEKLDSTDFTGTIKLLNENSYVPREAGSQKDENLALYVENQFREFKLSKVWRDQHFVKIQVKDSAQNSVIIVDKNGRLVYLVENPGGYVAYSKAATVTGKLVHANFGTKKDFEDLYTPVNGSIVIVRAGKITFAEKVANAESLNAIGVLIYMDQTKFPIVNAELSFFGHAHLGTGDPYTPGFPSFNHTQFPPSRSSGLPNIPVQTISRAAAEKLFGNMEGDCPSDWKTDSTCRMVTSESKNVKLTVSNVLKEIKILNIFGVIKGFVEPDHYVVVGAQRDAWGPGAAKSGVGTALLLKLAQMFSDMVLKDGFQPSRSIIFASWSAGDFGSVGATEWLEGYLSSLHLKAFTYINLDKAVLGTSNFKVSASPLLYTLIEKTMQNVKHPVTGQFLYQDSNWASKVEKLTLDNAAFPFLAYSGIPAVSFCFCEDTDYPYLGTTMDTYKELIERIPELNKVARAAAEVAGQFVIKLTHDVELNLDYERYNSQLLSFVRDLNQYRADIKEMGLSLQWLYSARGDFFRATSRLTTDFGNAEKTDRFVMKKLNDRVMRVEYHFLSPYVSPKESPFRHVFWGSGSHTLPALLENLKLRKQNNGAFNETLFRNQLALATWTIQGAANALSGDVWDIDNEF

B1: KB_A01, monomeric free VHH with C-terminal 6xHis tag and C-tag (VHH)
VHH: QVQLQESGGGSVQAGGSLSLSCAASGSIFGSKRMGWFRQAPGEQRDVVATITYRGTTEYADSVKGRFTISRDNAKNTVYLQMNNLKPEDTAVYYCWMFTTDNYWGQGTQVTVSS
notes: From the periplasm of E. coli
As for B1, the “fold lower affinity (KD) than the bivalent BA1” value in assay [1] is 206 fold. Also, the binding result in assay [2] was “no binding (tested: 6.25 to 100 nM)”. In assay [3], this molecule gave a Kd of 4.1 nM, a koff of 0.00414 s⁻¹ and a kon of 1.01e+06 M⁻¹ s⁻¹.

The term Kd denotes a measure of binding affinity in units of concentration. Low values mean a tighter complex, high ones a looser complex. Broadly, the koff is a measure of how fast the partners let go of each other. A higher koff goes with fast dissociation. A word on the kon: it is the rate constant with which the complex forms. Higher therefore signals faster complex formation.
